How the values were obtained:
[1] = biological target: HCV-E2蛋白 (Hepatitis C virus (HCV)); experiment: SPR, BiaCore X-100; antibody captured by goat anti-human IgG on CM5 chip, HCV-E2 as analyte
[2] = biological target: 不同的HCV包膜糖蛋白 (on HCV pseudovirus, HCVpp); experiment: cell-based or functional assay

B1: 全人源抗HCV的单克隆中和抗体TRN1001 (antibody, V domains shown)
VH: QVQLVQSGAEVKKPGSSVKVSCKVSGDRINNYAINWVRQAPGQGLEWMGRIIGIVGLANYAQKFQGRVTMTADKSTSTGYMELSTLKSDDTAMYYCATDNRILAAAPSHYSYSMDLWGPGTTVTVSS
VL: QSALTQPASVSGSPGQSITISCTGTSSDVGGDNYVSWYQQYTGKAPKVMIYDVSKRPSGVSNRFSGSKSGNTASLTISGLQAEDEADYYCCSYTSDNSYVFGSGTKVIVL
- Kd [1]: 20.3 nM
- koff [1]: 0.00011 s⁻¹
- kon [1]: 5440 M⁻¹ s⁻¹
- Luciferase活性 (荧光值), HCVpp infection of Huh7 cells [2]: 100%

Source: patent CN106749644A
